Measurements as given in the supplement of paper PMC9170038.

Assays:
MS2 coat protein [1] = test: apparent KD of MS2 coat protein; designed switch direction (-1 OFF switch, 1 ON switch): 1; higher = weaker reporter binding; conditions: Eterna round: R98
Description: (§1)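 RNA-MaP: designed FMN/MS2 RNA switches (84 nt design region) are transcribed on-chip within common flanks and titrated with SNAP-549-labelled MS2 coat protein (about 1-3000 nM) in 100 mM Tris pH 7.5, 80 mM KCl, 4 mM MgCl2, without or with 200 uM FMN. Median apparent KD per design; activation ratio = KD,OFF / KD,ON.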

MS2 coat protein [2] = test: apparent KD of MS2 coat protein; designed switch direction (-1 OFF switch, 1 ON switch): -1; higher = weaker reporter binding; conditions: Eterna round: R98
Description: as §1

| Sequence | apparent KD of MS2 coat protein (MS2 coat protein [1]; input ligand: FMN 200 uM) [nM] | apparent KD of MS2 coat protein (MS2 coat protein [1]; input ligand: none) [nM] | apparent KD of MS2 coat protein (MS2 coat protein [2]; input ligand: FMN 200 uM) [nM] | apparent KD of MS2 coat protein (MS2 coat protein [2]; input ligand: none) [nM] |
| --- | --- | --- | --- | --- |
| GCAGAAGGUGCGGAGGAUCACCCUGUAAGGAUAUGCAUUAGCAAGGAUAUACAGAGGAUCACCCUGUAGAAGGUGCACUACAAA [pwkr2 ssNG3 DX.5] | 525 | 1890 |  |  |
| GUAGCAUACCGAGGAUAUUCAGAGAAUAAAUAAACAUGAGGAUCACCCAUGUGGCGAAAGCCUAGGGAGAAGGCGGAAUGCUAC [salish99_SSNG2_r2_208] | 25.3 | 81.9 |  |  |
| UUCUGUGCCCAAAGUUUAAGCACAUGAGGAUCACCCAUGUGAAAGGAUAUGUGGCGUGUAACGUUAUAGAAGGUUCACAAUAAA [Edorcetila] |  |  | 74.9 | 33.1 |
| CCAGAGAUAUGAGGAUAUCGAGUGGAUAACACUCGAGAAGGCAUGUGAAAACAUGAGGAUCACCCAUGUGAUCAAUACUCUGGA [Same State NG1 - WT Aptamer 2D] | 27.4 | 170 |  |  |
| UGACGGCACACAGGAUAUAGUGCACAAAGUGUACUAGAAGGGUGAGCACUCGUCCGGGCACAUGAGGAUCACCCAUGUCGUCGA [Onusar] | 1040 | 133 |  |  |
| AUUAAUGGGUGAGGAUAUGCACAGGAUCACCGUGUAGAAGGCAUCAGGUAGAAGGUGCAGAGGAUCACCCUGUAAGGAUAUAUC [pwkr2 ssNG1 DX.13] | 858 | 998 |  |  |
| CCGGAAACGGGUAGCUGUACAUGAGGAUCACCCAUGUGAUCAUAGGAUAUGGUUCCUAAUUGGAACCAGAAGGAUGUCAGCUAC [Mat - Same State NG 3 - JL Mod - D86] | 434 | 32.6 |  |  |
| CAUGAAGGGUGAGGAUAUGCACAGGAUCACCGUGUAGAAGGCAUCAGGUAGAAGGUGCAGAGGAUCACCCUGUAAGGAUAUAUC [pwkr2 ssNG1 DX.16] | 482 | 1310 |  |  |
| UGUUGUUACGCAGGAUAUUGCCAACAGGCAGUAGGAUAUCCGAAAGGAGAAGGACCGCCAACAGGCGAGAAGGGCGGGUUAACA [pwkr exNG2 2xF7 2FMN.10 scored 83] |  |  | 35 | 57.9 |
| UCAUACAUGAGGAUCUCCCAUGACAUGAGGAUCACCCAUGUGCAGGAUAUACGUGAUAUAAUAUAGUAGAAGGGCAGACUAUAU [LRO008_Exclusion NG 3] |  |  | 192 | 157 |
| UAUAUAAUAAGAGCUGGAACUCAAACAUGAGGAUCACCCAUGUAGGAUAUCAGCACGAUAAGUGCUGAGAAGGACAACCAGCUC [Denovo 75] |  |  | 21.2 | 17.6 |
| GGACAUCCCACAGGAUAUGCUGGACUUUGUCCAGCAGAAGGGUGACAUGAGGAUCACCCAUGUAAUAGGAUGUCCAUAUUUAAU [Denovo 38] | 79.3 | 536 |  |  |
| CCCUUCAGAAGAGGGACAUGAGGAUCACCCAUGUAGGCUGCACAGGAUAUCGAUCGGAGGCGGUACGAGAAGGGUGACGUCAUU [Soedgege] | 168 | 79.3 |  |  |
| GCACUCAAGUUAGGAUAUGGAUCGGAAACCGAUCCAGAAGGAACACAAUAACAUGAGCAUCAGCCGUGUUCCAGAAACGAGUGC [SameSame 15 - Jieux - Same State NG 1] | 126 |  |  |  |
| GCCAUCGCAUGAGGAUAUGGCACCGUUUCGGUGCCAGAAGGCAUGUCUCUAGACAUGAGGAUCACCCAUGUAGUUAAGAUGGCA [Pyrimidine booster 2] | 50.4 | 589 |  |  |
| GGCGAUCAGGCUAACAUGAGGAUCACCCAUGUGGACUCAUGGUAGGAUAUGCUGUACAAAGUACAGCAGAAGGGCCGGAGAGCC [Mat - Same State NG 3 - JL Mod - D2] | 144 | 152 |  |  |
| GUAGCAUACCGAGGAUAUUCAUAUAAUAAAUAAACAUGAGGAUCACCCAUGUGGCGAAAGCCUAGGGAGAAGGCGGAAUGCUAA [salish99_SSNG2_r2_113] | 23.6 | 201 |  |  |
| UCACAGUGUCGUUAUCCGUAGCGAACAUGAGGAUCACCCAUGUAGGAUAUGUUAUUAAACUAAUAACAGAAGGACGUUAGUCGG [Ex NG3 #21] |  |  | 94.3 | 36 |
| GCCACAUGAGGAUCACCCAUGUACGGUUCCGUCUCAUUAGUGCAGGAUAUGUUCACCGGAAGUGUGCAGAAGGGUAAAAGUGGG [Onar] | 209 | 88.2 |  |  |
| GGUCCAAUAUGAGGAUAUAGCACCUUAUUGGUGCUAGAAGGCGUGUCGGUAGACAUGAGGAUCACCCAUGUAUUACAAUGGACC [SameState #28 NG1] | 25.6 | 88.6 |  |  |
| GCACUCAAGUUAGGAUAUGGAUCGGAAAACGAUCCAGAAGGAACAUGGGAACAUGAGGAUCACCCAUGUUCCAGAAACGAGUGC [SameSame 1 - Jieux - Same State NG 1] | 188 | 733 |  |  |
